PMC3985441 (Bioscience Reports, 2014)

Target: T1, p110αEE^E545K/p85α complex (E545K oncogenic mutant PI3Kα) (human, UniProt P42336 1-1068; P27986 1-724, E545K)
T1 construct: p110α catalytic subunit of Class 1A PI3K, human, full length, somatic cancer mutation E545K in the helical domain; p85α regulatory subunit of Class 1A PI3K, human, full length; 1:1 heterodimer; also called E545K mutant; p110α^E545K/p85α; not shown: EE tag (glu-tag, 6 amino acids), C-terminal, kept; copies: 1 + 1
Assay: pull-down; GST fusion proteins (1 μg) on glutathione agarose, PI3Kα complexes (100–3200 ng) in solution; TBS with 10% (v/v) FBS, 1 h at 4°C; washes in TBS with 0.1% Tween 20; bound PI3Kα detected by immunoblot for p85α
Conditions: both partners purified

T1 sequence (P42336 whole entry E545K, chain 1 of 2, the tested form may be a part): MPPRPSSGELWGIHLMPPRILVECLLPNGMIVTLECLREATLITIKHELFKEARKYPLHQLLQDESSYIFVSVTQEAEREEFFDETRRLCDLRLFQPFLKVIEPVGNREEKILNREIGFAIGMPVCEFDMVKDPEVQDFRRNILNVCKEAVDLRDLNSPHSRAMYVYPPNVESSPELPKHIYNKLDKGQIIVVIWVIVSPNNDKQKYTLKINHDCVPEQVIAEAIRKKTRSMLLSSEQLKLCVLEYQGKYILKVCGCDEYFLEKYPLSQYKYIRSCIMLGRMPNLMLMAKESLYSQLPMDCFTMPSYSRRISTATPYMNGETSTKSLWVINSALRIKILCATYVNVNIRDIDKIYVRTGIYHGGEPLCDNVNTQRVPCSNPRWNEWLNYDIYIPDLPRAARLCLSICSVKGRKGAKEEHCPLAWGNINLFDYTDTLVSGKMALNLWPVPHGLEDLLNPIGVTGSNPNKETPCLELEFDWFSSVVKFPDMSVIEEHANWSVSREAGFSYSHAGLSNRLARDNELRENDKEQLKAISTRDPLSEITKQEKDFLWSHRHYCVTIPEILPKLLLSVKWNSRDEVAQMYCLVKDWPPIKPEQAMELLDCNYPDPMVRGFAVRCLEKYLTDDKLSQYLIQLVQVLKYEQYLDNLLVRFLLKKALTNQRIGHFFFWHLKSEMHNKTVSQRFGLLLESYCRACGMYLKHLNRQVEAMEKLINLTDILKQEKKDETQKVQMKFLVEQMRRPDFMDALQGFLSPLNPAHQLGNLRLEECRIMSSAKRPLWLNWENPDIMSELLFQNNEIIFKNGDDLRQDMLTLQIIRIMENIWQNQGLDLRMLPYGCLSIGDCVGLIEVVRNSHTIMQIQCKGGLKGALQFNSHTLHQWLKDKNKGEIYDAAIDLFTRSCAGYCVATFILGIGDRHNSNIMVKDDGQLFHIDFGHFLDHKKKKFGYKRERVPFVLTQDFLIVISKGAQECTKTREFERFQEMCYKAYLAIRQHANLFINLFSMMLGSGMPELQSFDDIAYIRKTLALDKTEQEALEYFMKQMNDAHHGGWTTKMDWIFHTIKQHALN
T1 sequence (P27986 whole entry, chain 2 of 2, the tested form may be a part): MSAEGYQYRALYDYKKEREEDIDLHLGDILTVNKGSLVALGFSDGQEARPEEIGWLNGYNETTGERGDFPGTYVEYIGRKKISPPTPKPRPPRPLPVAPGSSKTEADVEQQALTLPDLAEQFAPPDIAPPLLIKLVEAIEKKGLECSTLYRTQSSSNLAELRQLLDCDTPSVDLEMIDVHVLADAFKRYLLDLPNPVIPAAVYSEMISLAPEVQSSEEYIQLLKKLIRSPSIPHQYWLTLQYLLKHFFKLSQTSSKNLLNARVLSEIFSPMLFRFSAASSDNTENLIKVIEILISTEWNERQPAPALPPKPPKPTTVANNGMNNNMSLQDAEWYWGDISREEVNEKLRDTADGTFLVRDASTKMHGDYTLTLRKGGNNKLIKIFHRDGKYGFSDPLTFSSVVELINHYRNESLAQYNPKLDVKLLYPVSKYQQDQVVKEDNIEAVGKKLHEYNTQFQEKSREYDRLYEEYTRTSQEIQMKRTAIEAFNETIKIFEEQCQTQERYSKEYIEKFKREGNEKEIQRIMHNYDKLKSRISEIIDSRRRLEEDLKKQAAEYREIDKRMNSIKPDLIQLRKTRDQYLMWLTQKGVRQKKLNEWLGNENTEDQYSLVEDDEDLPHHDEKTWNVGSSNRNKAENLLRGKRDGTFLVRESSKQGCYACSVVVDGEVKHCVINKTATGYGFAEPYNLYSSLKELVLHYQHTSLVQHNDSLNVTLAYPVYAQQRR

B1: GST-V12 Cdc42 (constitutively active Cdc42Hs) (natural protein)
chain: not shown
notes: Cdc42Hs, human, constitutively active (V12) form; Plasmid courtesy of Professor Anne Ridley; also called GST-Cdc42; source: E. coli BL21 (DE3), purified (glutathione agarose)
binding result: binds
